Data as given in US10254283.

Experiments:
[1] = test system: positional scanning peptide library Y-A-X-X-X-X-X-S/T-X-X-X-X-A-G-K-K-biotin

Flag-eIF4B (wild type), sequence (chain, as listed by the source): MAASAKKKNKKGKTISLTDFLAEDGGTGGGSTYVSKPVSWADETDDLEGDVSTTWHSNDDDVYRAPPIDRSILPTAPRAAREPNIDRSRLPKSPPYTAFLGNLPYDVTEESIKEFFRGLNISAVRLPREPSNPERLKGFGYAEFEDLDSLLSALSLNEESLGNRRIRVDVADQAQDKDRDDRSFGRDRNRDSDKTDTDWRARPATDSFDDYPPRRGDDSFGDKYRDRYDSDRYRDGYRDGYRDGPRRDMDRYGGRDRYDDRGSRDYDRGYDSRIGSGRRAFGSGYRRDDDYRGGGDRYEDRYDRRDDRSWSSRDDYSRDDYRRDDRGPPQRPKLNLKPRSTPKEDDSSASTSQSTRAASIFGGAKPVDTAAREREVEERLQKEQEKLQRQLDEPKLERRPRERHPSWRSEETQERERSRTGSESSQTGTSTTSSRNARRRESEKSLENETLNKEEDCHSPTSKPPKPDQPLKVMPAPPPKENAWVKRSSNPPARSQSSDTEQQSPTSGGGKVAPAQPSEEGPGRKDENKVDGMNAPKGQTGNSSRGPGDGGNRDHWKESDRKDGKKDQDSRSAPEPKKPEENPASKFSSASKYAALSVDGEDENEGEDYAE
Flag-eIF4B (S406A), sequence (chain, as listed by the source S406A): as the sequence (chain, as listed by the source) above, with S406A counted along it

recombinant full-length MELK
in vitro kinase assay, phosphorylation of eIF4B at S406 (immunoblot) (Flag-eIF4B (S406A)): This phosphorylation was abolished when wild type (wt) eIF4B was replaced with a mutant eIF4B (S406A)
in vitro kinase assay, phosphorylation of eIF4B at Ser406 (immunoblot) (Flag-eIF4B (wild type)): Ser406, but not Ser422, of human eIF4B was readily phosphorylated by full-length MELK or the kinase domain of MELK
in vitro kinase assay, phosphorylation of eIF4B at Ser422 (immunoblot) (Flag-eIF4B (wild type)): MELK does not phosphorylates eIF4B at S422 in vitro
positional scanning peptide library screen, in vitro phosphorylation with 32P-ATP [1]: an optimal substrate motif for MELK was identified having a strong selection for arginine at the -3 position relative to serine/threonine
